In publication PMC9398005, “A Drosophila Su(H) model of Adams-Oliver Syndrome reveals cofactor titration as a mechanism underlying developmental defects” (PLoS Genetics, 2021):

How the values were obtained:
Conditions in all cases: both partners purified
[1] = target: T1, mouse Rbpj (53-474) WT (mouse, UniProt P31266 53-474); experiment: ITC; cofactor (RAM peptide, Hairless or SHARP) in the syringe, Su(H) or Rbpj in the cell; 50 mM sodium phosphate, 150 mM sodium chloride; 20 injections, triplicate, one site model; 25°C by the legend, 20°C by the methods
T1 construct: also called WT Rbpj; WT RBPJ; source: E. coli BL21 Tuner, purified (ammonium sulfate, glutathione resin, PreScission cut, SP ion exchange)

[2] = target: T2, mouse Rbpj (53-474) E89G (mouse, UniProt P31266 53-474, E89G); experiment: as above
T2 construct: also called Rbpj E89G; E89G (analogous to human RBPJ E63G); source: E. coli BL21 Tuner, purified (ammonium sulfate, glutathione resin, PreScission cut, SP ion exchange)

[3] = target: T3, mouse Rbpj (53-474) K195E (mouse, UniProt P31266 53-474, K195E); experiment: as above
T3 construct: also called Rbpj K195E; K195E (analogous to human RBPJ K169E); source: E. coli BL21 Tuner, purified (ammonium sulfate, glutathione resin, PreScission cut, SP ion exchange)

[4] = target: T4, mouse Rbpj E89G (53-474) (mouse, UniProt P31266 53-474, E89G); experiment: ITC; RAM peptide, Hairless or SHARP in the syringe, Su(H) or Rbpj in the cell; 50 mM sodium phosphate, 150 mM sodium chloride; 20 injections of 14 uL; triplicate; one site binding model; 20°C by the methods, 25°C by the legend of Fig 6
T4 construct: also called analogous to human RBPJ E63G; source: E. coli BL21 Tuner, pGEX-6P1, purified (glutathione resin, PreScission cleavage, SP ion exchange)

[5] = target: T5, mouse Rbpj WT (53-474) (mouse, UniProt P31266 53-474); experiment: as above
T5 construct: also called CBF1; mouse CSL; source: E. coli BL21 Tuner, pGEX-6P1, purified (glutathione resin, PreScission cleavage, SP ion exchange)

[6] = target: T6, mouse Rbpj K195E (53-474) (mouse, UniProt P31266 53-474, K195E); experiment: as above
T6 construct: also called analogous to human RBPJ K169E; source: E. coli BL21 Tuner, pGEX-6P1, purified (glutathione resin, PreScission cleavage, SP ion exchange)
T6 sequence (P31266 53-474 K195E): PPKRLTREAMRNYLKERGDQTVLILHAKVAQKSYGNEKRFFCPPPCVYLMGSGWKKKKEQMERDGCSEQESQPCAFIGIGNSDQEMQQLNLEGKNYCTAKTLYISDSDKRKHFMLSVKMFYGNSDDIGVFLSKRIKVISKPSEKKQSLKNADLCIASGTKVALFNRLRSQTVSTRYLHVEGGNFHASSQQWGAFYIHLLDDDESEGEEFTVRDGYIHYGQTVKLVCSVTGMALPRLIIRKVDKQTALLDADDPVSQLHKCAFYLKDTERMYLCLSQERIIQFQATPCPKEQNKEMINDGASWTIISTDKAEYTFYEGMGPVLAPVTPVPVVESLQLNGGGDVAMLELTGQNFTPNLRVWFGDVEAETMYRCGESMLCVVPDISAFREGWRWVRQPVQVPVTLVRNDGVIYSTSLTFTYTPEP

T4 sequence (P31266 53-474 E89G): as the sequence (P31266 53-474 K195E) above, with E37G, E143K counted along it
T5 sequence (P31266 53-474): as the sequence (P31266 53-474 K195E) above, with E143K counted along it
T3 sequence (P31266 53-474 K195E): as the sequence (P31266 53-474 K195E) above
T2 sequence (P31266 53-474 E89G): as the sequence (P31266 53-474 K195E) above, with E37G, E143K counted along it
T1 sequence (P31266 53-474): as the sequence (P31266 53-474 K195E) above, with E143K counted along it

B1: SHARP residues 2776-2833 (domain or fragment, human, UniProt Q96T58 2776-2833, looked up)
chain: RASANENSRFHPGSMPVIDDRPADAGSGAGLRVNTSEGVVLLSYSGQKTEGPQRISAK
notes: called mouse SHARP in the results and the legend; also called mouse SHARP; mouse co-repressor SHARP; source: recombinant from pSMT3, purified as previously described
[1]
  Kd: ~5 nM
[2]
  Kd: ~5 nM
[3]
  Kd: 21 nM

B2: Notch1 RAM peptide (human Notch1 residues 1754-1781) (peptide)
peptide: VLLSRKRRRQHGQLWFPEGFKVSEASKK
notes: Notch1 RAM domain; the methods give human Notch1 residues 1754-1781, the results and the legend call it the mouse RAM domain; Methods say human Notch1 residues, results say mouse; also called mouse Notch 1 RAM; mouse RAM domain from Notch1; source: synthetic peptide (Peptide2.0, 95% purity)
[1]
  Kd: ~20 nM
[2]
  Kd: ~20 nM
[3]
  Kd: ~20 nM

B3: Notch1 RAM peptide (residues 1754-1781) (peptide)
peptide: VLLSRKRRRQHGQLWFPEGFKVSEASKK
notes: Notch1, RAM domain; also called mNotch1 RAM; mouse Notch 1 RAM; source: synthetic peptide (Peptide2.0, 95% purity)
[4]
  Ka: 5.6e+07 M⁻¹
  Kd: 19.9 nM
[5]
  Ka: 4.8e+07 M⁻¹
  Kd: 20.8 nM
[6]
  Ka: 5.1e+07 M⁻¹
  Kd: 22.4 nM

B4: SHARP residues 2776-2833 (domain or fragment, human, UniProt Q96T58 2776-2833, looked up)
chain: RASANENSRFHPGSMPVIDDRPADAGSGAGLRVNTSEGVVLLSYSGQKTEGPQRISAK
notes: the methods say human SHARP, the results and legend say mouse SHARP; species told as human in the methods and as mouse in the results and legend; also called mouse SHARP; source: bacterial recombinant, pSMT3, purified as previously described
[4]
  Ka: 2.9e+08 M⁻¹
  Kd: 5.2 nM
[5]
  Ka: 1.5e+09 M⁻¹
  Kd: 3.5 nM
[6]
  Ka: 5.8e+07 M⁻¹
  Kd: 21.1 nM
